Source: the supplement of paper PMC10724198
± gives the standard deviation of the averaged measurements.

Test system: Saccharomyces cerevisiae
Assay: protein stability index of tFT-peptide fusion (C-terminal peptide) (PSI (0-1 scale)); higher = more stable (slower turnover)
Conditions: genetic background: wild type; temperature: 30 C
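Further: PSI is a weighted mean of sequencing reads over stability bins, variants kept only with over 10 reads, mCherry proximal and sfGFP distal, peptide attached via GGGS linker.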

| Sequence | protein stability index |
| --- | --- |
| TTTYQLSQTITI | 0.646 ± 0.041 |
| VVEPEVCLPSMR | 0.6942 ± 0.0032 |
| IAVPFMPADLSF | 0.718 ± 0.0089 |
| TRKQSVIRIRMR | 0.653 ± 0.0082 |
| TKRRKKIPENRI | 0.6649 ± 0.0049 |
| SPPSRLRPAILP | 0.668 ± 0.032 |
| LLDGRNVPRFRK | 0.792 ± 0.042 |
| WVSILRWDACSR | 0.685 ± 0.014 |
| RVFTGLCRPFGV | 0.736 ± 0.012 |
| GSRGGVAYGRVG | 0.741 ± 0.04 |
| FPSSLPSAFPCP | 0.675 ± 0.016 |
| PPPPSCPHSAPL | 0.637 ± 0.008 |
| ISQAIMTNPIKE | 0.598 ± 0.14 |
| PPSPALPPSLPV | 0.682 ± 0.032 |
| TTRALEAPARPN | 0.6518 ± 0.0054 |
| SSKVFCRVAKRE | 0.724 ± 0.026 |
| RDVRNRARVKRE | 0.693 ± 0.012 |
| GAVGDRVRVCGS | 0.668 ± 0.02 |
| APGGACINIQLM | 0.663 ± 0.044 |
| DVSIFTNELGFY | 0.763 ± 0.01 |
| RTGGIVATRASE | 0.779 ± 0.13 |
| TSAPPPPPPPPP | 0.608 ± 0.021 |
| PTPAPLPPPSPP | 0.592 ± 0.024 |
| SRRSTIRCSTSC | 0.717 ± 0.036 |
| VKSFRFPHPVWN | 0.682 ± 0.011 |
| GVVVVVVGRGLG | 0.574 ± 0.018 |

| Sequence | protein stability index |
| --- | --- |
| HTTMVGVAEGWV | 0.686 ± 0.049 |
| CGLGGLYLVLHD | 0.671 ± 0.067 |
| GDGWPTRSGGTG | 0.701 ± 0.01 |
| SVRAHGDIQIPR | 0.732 ± 0.073 |
| FGSSLVVSMVFD | 0.704 ± 0.015 |
| RVGERGEGGGVV | 0.638 ± 0.014 |
| SPPVPPLPAPAT | 0.539 ± 0.012 |
| AGWGRRRLDGGR | 0.684 ± 0.02 |
| FFTPSKQSQAYC | 0.662 ± 0.027 |
| RLVTSCSAAGSG | 0.671 ± 0.007 |
| CSWNLLAHPPAQ | 0.744 ± 0.0093 |
| PLPSFPFPRPSS | 0.634 ± 0.037 |
| LWVGVVGGVRGV | 0.598 ± 0.1 |
| LSCQWNSDSLGV | 0.644 ± 0.1 |
| SSLPPLRPFSPS | 0.726 ± 0.075 |
| TLSPPLPPPSPS | 0.66129 ± 0.00029 |
| ESLLFICAHALV | 0.566 ± 0.017 |
| AKLNQLMSKSQI | 0.678 ± 0.02 |
| KTNIKKQSKISK | 0.778 ± 0.18 |
| AGSLCSVVFFSG | 0.688 ± 0.23 |
| VDRGGRVGERGR | 0.597 ± 0.031 |
| RGGRLQVGMEAV | 0.6653 ± 0.0022 |
| LPPLPPLAHHPA | 0.699 ± 0.044 |
| LAPALPPQPPSH | 0.658 ± 0.023 |
| LRPCVSHLHLQN | 0.677 ± 0.18 |
| PATQTRKETRTP | 0.69 ± 0.059 |

| Sequence | protein stability index |
| --- | --- |
| REEGGWGEAWRE | 0.726 ± 0.049 |
| RDCSGGRRGLER | 0.601 ± 0.023 |
| WLVRNVVGGGLC | 0.701 ± 0.046 |
| PPLPPLCRPLPP | 0.685 ± 0.1 |
| WGGVRRVRVGGQ | 0.723 ± 0.053 |
| GRRHNPRTSSAQ | 0.756 ± 0.075 |
| TCPPAPSTGPST | 0.648 ± 0.0073 |
| FHSRGVASPQPP | 0.682 ± 0.018 |
| TRYKSMRAGVAG | 0.674 ± 0.067 |
| RGALGVVWSGLD | 0.637 ± 0.023 |
| RFGRGAVWGLGG | 0.6554 ± 0.0051 |
| IQLPPPYATPPS | 0.645 ± 0.012 |
| PRFPYGPFDFSI | 0.669 ± 0.046 |
| LELTSDWRAYVY | 0.643 ± 0.052 |
| VEVRRMCSGQLG | 0.7136 ± 0.00096 |
| PLHHPPSPRLPP | 0.617 ± 0.018 |
| SGFLPPRFLSPS | 0.6895 ± 0.0012 |
| PPPRTFSSSFHV | 0.6366 ± 0.0043 |
| VAFPRSSTLGPY | 0.696 ± 0.027 |
| NCGGQGKEDGCK | 0.621 ± 0.013 |
| SPPQTETGAQRP | 0.666 ± 0.051 |
| DVPKSGLEVWRR | 0.627 ± 0.067 |
| SSESPPLLPRPL | 0.754 ± 0.032 |
| DSRRDYLHLVFT | 0.646 ± 0.023 |
| PFPPPTPPPPLP | 0.751 ± 0.077 |
| DTVYSRAIAANA | 0.545 ± 0.012 |

| Sequence | protein stability index |
| --- | --- |
| QSPMTTGASERH | 0.623 ± 0.066 |
| AFLTSYHPPPLP | 0.69 ± 0.059 |
| KASEALGYTSNE | 0.675 ± 0.037 |
| LPSPALSRSDPT | 0.729 ± 0.031 |
| LAMALRGGLYFS | 0.701 ± 0.011 |
| VTGTQGELGSFV | 0.689 ± 0.11 |
| PTRSEGYSVVYM | 0.693 ± 0.043 |
| FFSSSDRQLSNQ | 0.716 ± 0.041 |
| CQFHHHPDLTIK | 0.609 ± 0.077 |
| RLQSSRQMLVPS | 0.63729 ± 0.00036 |
| ILSRAGMITHCR | 0.642 ± 0.019 |
| GSMRRSSVTLSA | 0.709 ± 0.065 |
| PPRPDRSSLPPF | 0.712 ± 0.037 |
| FVSVSVRFHHSF | 0.575 ± 0.056 |
| GGVNRPRKSTAT | 0.6977 ± 0.0063 |
| SVGFYMLECVDD | 0.688 ± 0.0099 |
| WVSRDFLVEAVW | 0.557 ± 0.026 |
| VIMAEVLCVSNL | 0.508 ± 0.0071 |
| RLPVKQQVLPDK | 0.6783 ± 0.0062 |
| SRVVHSHRSFRP | 0.6843 ± 0.0047 |
| PPPRPPPPPPVP | 0.707 ± 0.041 |
| KDLFDLYLKRLL | 0.65 ± 0.0098 |
| RKINQKNNEKNS | 0.648 ± 0.0037 |
